Data from paper PMC10300371, “Categorization of Escherichia coli outer membrane proteins by dependence on accessory proteins of the β-barrel assembly machinery complex” (The Journal of Biological Chemistry, 2023).

B1: OmpF (natural protein, E. coli, UniProt P02931 23-362, looked up)
chain: AEIYNKDGNKVDLYGKAVGLHYFSKGNGENSYGGNGDMTYARLGFKGETQINSDLTGYGQWEYNFQGNNSEGADAQTGNKTRLAFAGLKYADVGSFDYGRNYGVVYDALGYTDMLPEFGGDTAYSDDFFVGRVGGVATYRNSNFFGLVDGLNFAVQYLGKNERDTARRSNGDGVGGSISYEYEGFGIVGAYGAADRTNLQEAQPLGNGKKAEQWATGLKYDANNIYLAANYGETRNATPITNKFTNTSGFANKTQDVLLVAQYQFDFGLRPSIAYTKSKAKDVEGIGDVDLVNYFEVGATYYFNKNMSTYVDYIINQIDSDNKLGVGSDDTVAVGIVYQF
modifications: 35S-methionine and 35S-cysteine (radiolabel)
notes: Made as a monomer and seen as a trimer after assembly into EMM; also called 35S-labeled OmpF; major porin; source: in vitro translated, rabbit reticulocyte lysate (Promega), 35S-labelled; assembled into EMM
B2: OmpC (natural protein, E. coli, UniProt P06996 22-367, looked up)
chain: AEVYNKDGNKLDLYGKVDGLHYFSDNKDVDGDQTYMRLGFKGETQVTDQLTGYGQWEYQIQGNSAENENNSWTRVAFAGLKFQDVGSFDYGRNYGVVYDVTSWTDVLPEFGGDTYGSDNFMQQRGNGFATYRNTDFFGLVDGLNFAVQYQGKNGNPSGEGFTSGVTNNGRDALRQNGDGVGGSITYDYEGFGIGGAISSSKRTDAQNTAAYIGNGDRAETYTGGLKYDANNIYLAAQYTQTYNATRVGSLGWANKAQNFEAVAQYQFDFGLRPSLAYLQSKGKNLGRGYDDEDILKYVDVGATYYFNKNMSTYVDYKINLLDDNQFTRDAGINTDNIVALGLVYQF
modifications: 35S-methionine and 35S-cysteine (radiolabel)
notes: Made as a monomer and seen as a trimer after assembly into EMM; also called 35S-labeled OmpC; major porin; source: in vitro translated, rabbit reticulocyte lysate (Promega), 35S-labelled; assembled into EMM
B3: LamB (natural protein, E. coli, UniProt P02943 26-446, looked up)
chain: VDFHGYARSGIGWTGSGGEQQCFQTTGAQSKYRLGNECETYAELKLGQEVWKEGDKSFYFDTNVAYSVAQQNDWEATDPAFREANVQGKNLIEWLPGSTIWAGKRFYQRHDVHMIDFYYWDISGPGAGLENIDVGFGKLSLAATRSSEAGGSSSFASNNIYDYTNETANDVFDVRLAQMEINPGGTLELGVDYGRANLRDNYRLVDGASKDGWLFTAEHTQSVLKGFNKFVVQYATDSMTSQGKGLSQGSGVAFDNEKFAYNINNNGHMLRILDHGAISMGDNWDMMYVGMYQDINWDNDNGTKWWTVGIRPMYKWTPIMSTVMEIGYDNVESQRTGDKNNQYKITLAQQWQAGDSIWSRPAIRVFATYAKWDEKWGYDYTGNADNNANFGKAVPADFNGGSFGRGDSDEWTFGAQMEIWW
modifications: 35S-methionine and 35S-cysteine (radiolabel)
notes: Made as a monomer and seen as a trimer after assembly into EMM; also called 35S-labeled LamB; maltoporin; source: in vitro translated, rabbit reticulocyte lysate (Promega), 35S-labelled; assembled into EMM

Target: the molecule itself
Assay: native gel or EMSA; 35S-labelled protein incubated with EMM at 30 °C for 10 to 90 min, EMM solubilised in 1.5% DDM, BN-PAGE and radioimaging; monomer to trimer

Stoichiometry N, 3:
B1
B2
B3
